The target of experiment [1] is T1, complement protein C3b (UniProt P01024 749-1663; P01024 23-667).
T1 construct: also called factor C3b
As to the kind of experiment: SPR, C3b coupled to chip, 1:1 steady state affinity model. The protocol:
(§1) A surface plasmon resonance (SPR)-based assay (Schmidt et al. (2013), Journal of Immunology 190:5712-5721) was used to determine the affinity of the engineered complement inhibitors for the key complement protein C3b. 1940 response units […] of C3b were coupled to the chip. The samples were run at 25 μl/min in a concentration series with the highest and the lowest concentrations being assayed in duplicate to probe reproducibility. To get an estimation of the KD value for other proteins the plot of response (during steady state) against the assayed concentration was fitted to a 1:1 steady state affinity model.

The target in experiment [2] is T1, complement protein C3b. The experiment is described as follows: not named in the sentence (SPR on C3b by Table 1). The protocol:
as §1

T1 sequence (P01024 749-1663 limits assumed, chain 1 of 2): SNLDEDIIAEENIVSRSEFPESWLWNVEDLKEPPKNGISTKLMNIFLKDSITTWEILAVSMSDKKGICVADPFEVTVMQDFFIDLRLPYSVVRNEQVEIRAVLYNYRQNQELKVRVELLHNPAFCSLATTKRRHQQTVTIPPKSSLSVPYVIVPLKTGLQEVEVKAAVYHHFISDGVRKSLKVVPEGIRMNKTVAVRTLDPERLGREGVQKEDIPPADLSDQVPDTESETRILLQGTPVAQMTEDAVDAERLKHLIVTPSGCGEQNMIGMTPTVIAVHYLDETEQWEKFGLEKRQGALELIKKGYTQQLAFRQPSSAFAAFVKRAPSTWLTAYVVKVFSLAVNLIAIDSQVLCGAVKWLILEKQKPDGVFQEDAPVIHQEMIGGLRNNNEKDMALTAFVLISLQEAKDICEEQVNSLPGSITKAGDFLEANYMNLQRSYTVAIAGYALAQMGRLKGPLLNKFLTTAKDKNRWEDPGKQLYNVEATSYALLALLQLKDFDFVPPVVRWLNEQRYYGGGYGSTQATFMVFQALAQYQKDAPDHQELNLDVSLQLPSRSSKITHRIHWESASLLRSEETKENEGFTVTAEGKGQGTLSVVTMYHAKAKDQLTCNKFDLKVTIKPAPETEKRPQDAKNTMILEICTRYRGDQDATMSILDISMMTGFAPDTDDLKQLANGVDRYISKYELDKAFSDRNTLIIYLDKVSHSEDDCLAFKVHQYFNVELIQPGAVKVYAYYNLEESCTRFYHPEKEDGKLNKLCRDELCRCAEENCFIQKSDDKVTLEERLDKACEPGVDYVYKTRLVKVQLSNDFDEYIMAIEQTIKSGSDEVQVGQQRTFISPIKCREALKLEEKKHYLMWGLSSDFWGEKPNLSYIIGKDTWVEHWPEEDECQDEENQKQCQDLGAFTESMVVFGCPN
T1 sequence (P01024 23-667 limits assumed, chain 2 of 2): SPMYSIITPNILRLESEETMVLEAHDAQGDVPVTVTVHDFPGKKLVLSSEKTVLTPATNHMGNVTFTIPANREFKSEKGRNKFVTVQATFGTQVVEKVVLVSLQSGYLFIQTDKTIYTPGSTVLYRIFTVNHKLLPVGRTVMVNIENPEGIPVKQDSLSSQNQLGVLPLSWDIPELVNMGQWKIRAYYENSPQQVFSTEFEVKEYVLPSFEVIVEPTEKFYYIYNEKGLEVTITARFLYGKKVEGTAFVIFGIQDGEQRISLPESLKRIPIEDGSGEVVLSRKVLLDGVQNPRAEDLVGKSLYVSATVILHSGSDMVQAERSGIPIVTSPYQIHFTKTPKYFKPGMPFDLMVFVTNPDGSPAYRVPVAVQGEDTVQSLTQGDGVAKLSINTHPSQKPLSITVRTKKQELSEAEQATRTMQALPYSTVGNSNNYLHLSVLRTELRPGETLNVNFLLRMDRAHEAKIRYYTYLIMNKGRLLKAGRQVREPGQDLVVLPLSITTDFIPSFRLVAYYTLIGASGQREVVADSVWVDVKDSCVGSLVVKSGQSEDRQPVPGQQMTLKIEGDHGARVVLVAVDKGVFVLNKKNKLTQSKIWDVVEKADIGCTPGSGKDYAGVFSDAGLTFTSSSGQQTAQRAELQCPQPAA

B1: DAF(1-4)FH(19-20) long linker (other)
chain: DCGLPPDVPNAQPALEGRTSFPEDTVITYKCEESFVKIPGEKDSVICLKGSQWSDIEEFCQRSCEVPTRLNSASLKQPYITQNYFPVGTVVEYECRPGYRREPSLSPKLTCLQNLKWSTAVEFCKKKSCPNPGEIRNGQIDVPGGILFGATISFSCNTGYKLFGSTSSFCLISGSSVQWSDPLPECREIYCPAPPQIDNGIIQGERDHYGYRQSVTYACNKGFTMIGEHSIYCTVNNDEGEWSGPPPECRGGGGGGGGGGGGGGGKCGPPPPIDNGDITSFPLSVYAPASSVEYQCQNLYQLEGNKRITCRNGQWSEPPKCLHPCVISREIMENYNIALRWTAKQKLYSRTGESVEFVCKRGYRLSSRSHTLRTTCWDGKLEYPTCA
notes: Fusion protein with an oligo-glycine linker; also called DAF(1-4)FH(19-20)-LL
In the experiment with complement protein C3b [1], B1 showed a Kd of 175 nM.

B2: CR1(15-17) (receptor)
chain: not shown
notes: Produced in Pichia pastoris; also called CCPs 15 to 17 of human CR1
B2 yielded a Kd with complement protein C3b [1] of 954 nM.

B3: FH(19-20) (other)
chain: KCGPPPPIDNGDITSFPLSVYAPASSVEYQCQNLYQLEGNKRITCRNGQWSEPPKCLHPCVISREIMENYNIALRWTAKQKLYSRTGESVEFVCKRGYRLSSRSHTLRTTCWDGKLEYPTCA
notes: also called CCPs 19 and 20 of Factor H
In the case of B3, in the experiment with complement protein C3b [1], the Kd was found to be 4670 nM.

B4: DAF(1-4)FH(19-20)CR1(15-17) (other)
chain: DCGLPPDVPNAQPALEGRTSFPEDTVITYKCEESFVKIPGEKDSVICLKGSQWSDIEEFCQRSCEVPTRLNSASLKQPYITQNYFPVGTVVEYECRPGYRREPSLSPKLTCLQNLKWSTAVEFCKKKSCPNPGEIRNGQIDVPGGILFGATISFSCNTGYKLFGSTSSFCLISGSSVQWSDPLPECREIYCPAPPQIDNGIIQGERDHYGYRQSVTYACNKGFTMIGEHSIYCTVNNDEGEWSGPPPECRGGGGGGGGGGGGGGGKCGPPPPIDNGDITSFPLSVYAPASSVEYQCQNLYQLEGNKRITCRNGQWSEPPKCLHPCVISREIMENYNIALRWTAKQKLYSRTGESVEFVCKRGYRLSSRSHTLRTTCWDGKLEYPTCAGGGGGGGHCQAPDHFLFAKLKTQTQASDFPIGTSLKYECRPEYYGRPFSITCLDNLVWSSPKDVCKRKSCKTPPDPVNGMVHVITDIQVGSRIQYSCTTGHRLIGHSSAECILSGNTAHWSTKPPICQRIPCGLPPTIANGDFISTNRENFHYGSVVTYRCNLGSRGRKVFELVGEPSIYCTSNDDQVGIWSGPAPQCII
notes: Multi-domain fusion polypeptide produced in Pichia pastoris; also called triple I; triple-I
B4: the values for the Kd with complement protein C3b [1] and in the experiment with complement protein C3b [2] were 22.8 nM and 20 nM, respectively.

B5: DAF(1-4)FH(19-20) short linker (other)
chain: DCGLPPDVPNAQPALEGRTSFPEDTVITYKCEESFVKIPGEKDSVICLKGSQWSDIEEFCNRSCEVPTRLNSASLKQPYITQNYFPVGTVVEYECRPGYRREPSLSPKLTCLQNLKWSTAVEFCKKKSCPNPGEIRNGQIDVPGGILFGATISFSCNTGYKLFGSTSSFCLISGSSVQWSDPLPECREIYCPAPPQIDNGIIQGERDHYGYRQSVTYACNKGFTMIGEHSIYCTVNNDEGEWSGPPPECRGPGGGKCGPPPPIDNGDITSFPLSVYAPASSVEYQCQNLYQLEGNKRITCRNGQWSEPPKCLHPCVISREIMENYNIALRWTAKQKLYSRTGESVEFVCKRGYRLSSRSHTLRTTCWDGKLEYPTCAKR
notes: Fusion protein; the two domains are joined directly; also called DAF(1-4)FH(19-20)-SL
In turn, B5 came in with a Kd in the experiment with complement protein C3b [1] of 125 nM.

B6: DAF(1-4) (other)
chain: DCGLPPDVPNAQPALEGRTSFPEDTVITYKCEESFVKIPGEKDSVICLKGSQWSDIEEFCQRSCEVPTRLNSASLKQPYITQNYFPVGTVVEYECRPGYRREPSLSPKLTCLQNLKWSTAVEFCKKKSCPNPGEIRNGQIDVPGGILFGATISFSCNTGYKLFGSTSSFCLISGSSVQWSDPLPECREIYCPAPPQIDNGIIQGERDHYGYRQSVTYACNKGFTMIGEHSIYCTVNNDEGEWSGPPPECR
notes: Produced in Pichia pastoris; also called soluble DAF; sDAF
As to B6, binding with complement protein C3b [1] was characterised by a dissociation constant (Kd) of 11500 nM.

B7: CR1(1-3)FH(19-20)CR1(15-17) (other)
chain: QCNAPEWLPFARPTQLTDEFEFPIGTYLNYECRPGYSGRPFSIICLKNSVWTGAKDRCRRKSCRNPPDPVNGMVHVIKGIQFGSQIKYSCTKGYRLIGSSSATCIISGDTVIWDQETPICDRIPCGLPPTITNGDFISTNRENFHYGSVVTYRCNPGSGGRKVFELVGEPSIYCTSNDDQVGIWSGPAPQCIIGGGGGGGGGGGGGGKCGPPPPIDNGDITSFPLSVYAPASSVEYQCQNLYQLEGNKRITCRNGQWSEPPKCLHPCVISREIMENYNIALRWTAKQKLYSRTGESVEFVCKRGYRLSSRSHTLRTTCWDGKLEYPTCAGGGGGGGHCQAPDHFLFAKLKTQTQASDFPIGTSLKYECRPEYYGRPFSITCLDNLVWSSPKDVCKRKSCKTPPDPVNGMVHVITDIQVGSRIQYSCTTGHRLIGHSSAECILSGNTAHWSTKPPICQRIPCGLPPTIANGDFISTNRENFHYGSVVTYRCNLGSRGRKVFELVGEPSIYCTSNDDQVGIWSGPAPQCII
notes: Multi-domain fusion polypeptide produced in Pichia pastoris
For B7, the Kd with complement protein C3b [1] was 40.6 nM; in the experiment with complement protein C3b [2] it was 40 nM.

Values taken from US20250353894A1 (UNIVERSITAT ULM, published 2025).
